Measurements: patent US8889615B2, “Methods for promoting epithelialization and healing of chronic wounds” (New York University, priority 2009, dated 2014)

Test system: Primary human keratinocytes
Test: Keratinocyte migration, wound scratch assay
Format: cell-based
Conditions: 20 μmol/L LiCl or 25 ng/ml of EGF, 24 and 48 hours
Description: Primary human keratinocytes were grown to 80% confluency. Twenty-four hours before the experiment cells were transferred to basal KBM medium (Life Technologies, Inc., Grand Island, N.Y.). Before the scratch, cells were treated with 8 μg/ml mitomycin C (ICN, Irvine, Calif.) for 1 hour and washed with basal media. Scratches were performed as previously described (Lee, et al., J Mol. Biol., 345:1083-1097 (2005)). Cells were incubated with 20 μmol/L LiCl or 25 ng/ml of EGF for 24 and 48 hours, rephotographed, and cell migration was quantified as previously described (Lee, et al., J. Mol. Biol., 345:1083-1097 (2005); Zavadil. et al., EMBO J., 23:1155-1165 (2004)). Thirty measurements were taken for each experimental condition and distance coverage by cells moving into the scratch wound area was quantified. Three images were analyzed per condition, per time point, and averages and standard deviations were calculated.

B1: EGF: epidermal growth factor, promotes keratinocyte migration (protein, UniProt P01133 23-1207, looked up)
Pro-epidermal growth factor: PQHWSCPEGTLAGNGNSTCVGPAPFLIFSHGNSIFRIDTEGTNYEQLVVDAGVSVIMDFHYNEKRIYWVDLERQLLQRVFLNGSRQERVCNIEKNVSGMAINWINEEVIWSNQQEGIITVTDMKGNNSHILLSALKYPANVAVDPVERFIFWSSEVAGSLYRADLDGVGVKALLETSEKITAVSLDVLDKRLFWIQYNREGSNSLICSCDYDGGSVHISKHPTQHNLFAMSLFGDRIFYSTWKMKTIWIANKHTGKDMVRINLHSSFVPLGELKVVHPLAQPKAEDDTWEPEQKLCKLRKGNCSSTVCGQDLQSHLCMCAEGYALSRDRKYCEDVNECAFWNHGCTLGCKNTPGSYYCTCPVGFVLLPDGKRCHQLVSCPRNVSECSHDCVLTSEGPLCFCPEGSVLERDGKTCSGCSSPDNGGCSQLCVPLSPVSWECDCFPGYDLQLDEKSCAASGPQPFLLFANSQDIRHMHFDGTDYGTLLSQQMGMVYALDHDPVENKIYFAHTALKWIERANMDGSQRERLIEEGVDVPEGLAVDWIGRRFYWTDRGKSLIGRSDLNGKRSKIITKENISQPRGIAVHPMAKRLFWTDTGINPRIESSSLQGLGRLVIASSDLIWPSGITIDFLTDKLYWCDAKQSVIEMANLDGSKRRRLTQNDVGHPFAVAVFEDYVWFSDWAMPSVMRVNKRTGKDRVRLQGSMLKPSSLVVVHPLAKPGADPCLYQNGGCEHICKKRLGTAWCSCREGFMKASDGKTCLALDGHQLLAGGEVDLKNQVTPLDILSKTRVSEDNITESQHMLVAEIMVSDQDDCAPVGCSMYARCISEGEDATCQCLKGFAGDGKLCSDIDECEMGVPVCPPASSKCINTEGGYVCRCSEGYQGDGIHCLDIDECQLGEHSCGENASCTNTEGGYTCMCAGRLSEPGLICPDSTPPPHLREDDHHYSVRNSDSECPLSHDGYCLHDGVCMYIEALDKYACNCVVGYIGERCQYRDLKWWELRHAGHGQQQKVIVVAVCVVVLVMLLLLSLWGAHYYRTQKLLSKNPKNPYEESSRDVRSRRPADTEDGMSSCPQPWFVVIKEHQDLKNGGQPVAGEDGQAADGSMQPTSWRQEPQLCGMGTEQGCWIPVSSDKGSCPQVMERSFHMPSYGTQTLEGGVEKPHSLLSANPLWQQRALDPPHQMELTQ
modifications: Pro-epidermal growth factor
notes: epidermal growth factor, promotes keratinocyte migration
- keratinocyte migration: promoted
